According to patent publication US20230416335A1:
Where a chain is given by its changes, count along the chain named.

B1: ImmTAC molecule a79b64 (TCR-anti-CD3 fusion) (TCR, part only; not given: anti-CD3 scFv, linker, constant regions, not shown: a dimerising Fc or GST)
TCR alpha, part: GDAKTTQPNSMESNEEEPVHLPCNHSTISGTDYIHWYRQLPSQGPEYVIHGLTSNVNNRMASLAIAEDRKSSTLILHRATLRDAAVYYCILILGHSRLGNYIATFGKGTKLSVIP
TCR beta, part: DGGITQSPKYLFRKEGQNVTLSCEQNLNHDAMYWYRQDPGQGLRLIYYSQIMNDEQKGDIAEGYSVSREKKESFPLTVTSAQKNPTAFYLCASSWWTGGSAPIRFGPGTRLTVT
B2: ImmTAC molecule a79b66 (TCR-anti-CD3 fusion) (TCR, part only; not given: anti-CD3 scFv, linker, constant regions, not shown: a dimerising Fc or GST)
TCR alpha, part: B1 TCR alpha, part
TCR beta, part: B1 TCR beta, part with N53G, W95P
B3: ImmTAC molecule a79b67 (TCR-anti-CD3 fusion) (TCR, part only; not given: anti-CD3 scFv, linker, constant regions, not shown: a dimerising Fc or GST)
TCR alpha, part: B1 TCR alpha, part
TCR beta, part: B1 TCR beta, part with N53G, G98S
B4: ImmTAC molecule a79b69 (TCR-anti-CD3 fusion) (TCR, part only; not given: anti-CD3 scFv, linker, constant regions, not shown: a dimerising Fc or GST)
TCR alpha, part: B1 TCR alpha, part
TCR beta, part: B1 TCR beta, part with N53G, P102E
B5: ImmTAC molecule a79b71 (TCR-anti-CD3 fusion) (TCR, part only; not given: anti-CD3 scFv, linker, constant regions, not shown: a dimerising Fc or GST)
TCR alpha, part: B1 TCR alpha, part
TCR beta, part: B1 TCR beta, part with N53G, R104Y
B6: ImmTAC molecule a79b58 (TCR-anti-CD3 fusion) (TCR, part only; not given: anti-CD3 scFv, linker, constant regions, not shown: a dimerising Fc or GST)
TCR alpha, part: B1 TCR alpha, part
TCR beta, part: B1 TCR beta, part with N53G, A101S, R104S
B7: ImmTAC molecule a79b73 (TCR-anti-CD3 fusion) (TCR, part only; not given: anti-CD3 scFv, linker, constant regions, not shown: a dimerising Fc or GST)
TCR alpha, part: B1 TCR alpha, part
TCR beta, part: B1 TCR beta, part with N53G, S100A, R104S
B8: ImmTAC molecule a79b74 (TCR-anti-CD3 fusion) (TCR, part only; not given: anti-CD3 scFv, linker, constant regions, part only)
TCR alpha, part: B1 TCR alpha, part
TCR beta, part: B1 TCR beta, part with N53G, S100A, A101S
B9: ImmTAC molecule a79b75 (TCR-anti-CD3 fusion) (TCR, part only; not given: anti-CD3 scFv, linker, constant regions, not shown: a dimerising Fc or GST)
TCR alpha, part: B1 TCR alpha, part
TCR beta, part: B1 TCR beta, part with N53G, R104S
B10: ImmTAC molecule a79b76 (TCR-anti-CD3 fusion) (TCR, part only; not given: anti-CD3 scFv, linker, constant regions, not shown: a dimerising Fc or GST)
TCR alpha, part: B1 TCR alpha, part
TCR beta, part: B1 TCR beta, part with N53G, A101S
B11: ImmTAC molecule a28b60 (TCR-anti-CD3 fusion) (TCR, part only; not given: anti-CD3 scFv, linker, constant regions, not shown: a dimerising Fc or GST)
TCR alpha, part: B1 TCR alpha, part with L98A
TCR beta, part: B1 TCR beta, part with N53G, S100A, A101S, P102E, R104S
B12: ImmTAC molecule a79b77 (TCR-anti-CD3 fusion) (TCR, part only; not given: anti-CD3 scFv, linker, constant regions, not shown: a dimerising Fc or GST)
TCR alpha, part: B1 TCR alpha, part
TCR beta, part: B1 TCR beta, part with N53G, S100A
B13: ImmTAC molecule a28b74 (TCR-anti-CD3 fusion) (TCR, part only; not given: anti-CD3 scFv, linker, constant regions, not shown: a dimerising Fc or GST)
TCR alpha, part: B1 TCR alpha, part with L98A
TCR beta, part: B1 TCR beta, part with N53G, S100A, A101S
B14: ImmTAC molecule a28b75 (TCR-anti-CD3 fusion) (TCR, part only; not given: TCR constant regions and anti-CD3 scFv, not shown: a dimerising Fc or GST)
TCR alpha, part: B1 TCR alpha, part with L98A
TCR beta, part: B1 TCR beta, part with N53G, R104S
B15: ImmTAC molecule a28b57 (TCR-anti-CD3 fusion) (TCR, part only; not given: anti-CD3 scFv, linker, constant regions, not shown: a dimerising Fc or GST)
TCR alpha, part: B1 TCR alpha, part with L98A
TCR beta, part: B1 TCR beta, part with N53G, G98S, S100A, A101S, R104S
B16: ImmTAC molecule a28b58 (TCR-anti-CD3 fusion) (TCR, part only; not given: anti-CD3 scFv, linker, constant regions, not shown: a dimerising Fc or GST)
TCR alpha, part: B1 TCR alpha, part with L98A
TCR beta, part: B1 TCR beta, part with N53G, A101S, R104S
B17: ImmTAC molecule a109b46 (TCR-anti-CD3 fusion) (TCR, part only; not given: anti-CD3 scFv, linker, constant regions, not shown: a dimerising Fc or GST)
TCR alpha, part: B1 TCR alpha, part with I102Q
TCR beta, part: B1 TCR beta, part with N53G
B18: ImmTAC molecule a79b63 (TCR-anti-CD3 fusion) (TCR, part only; not given: anti-CD3 scFv, linker, constant regions, not shown: a dimerising Fc or GST)
TCR alpha, part: B1 TCR alpha, part
TCR beta, part: B1 TCR beta, part with M52V, N53G

What follows are binders tested against … (SEQ ID NO: 1)-HLA-A*02 complex (human) (assay: SPR (BIAcore) or BLI (Octet) per Example 3, immobilised biotinylated pHLA, 25 C).

Binder	Kd	t1/2
B1	0.138 nM	6.38 h
B2	0.089 nM	9.16 h
B3	0.047 nM	12.7 h
B4	0.052 nM	20.4 h
B5	0.087 nM	14.9 h
B6	0.0231 nM	28.7 h
B7	0.132 nM	4.6 h
B8	0.0533 nM	12.5 h
B9	0.0577 nM	16.9 h
B10	0.0118 nM	58.3 h
B11	0.261 nM	2.8 h
B12	0.0779 nM	8.6 h
B13	0.182 nM	3.7 h
B14	0.214 nM	5.1 h
B15	0.083 nM	8.3 h
B16	0.079 nM	8.9 h
B17	0.17 nM	7.31 h
B18	0.079 nM	10.8 h

These binders were tested against … (SEQ ID NO: 1)-HLA-A*02 complex (human) (assay: cell-based or functional assay).

Binder	EC50 (mel624), IFN-γ ELISPOT, T cell activation
B1	0.0275 nM
B2	0.0167 nM
B3	0.0263 nM
B4	0.0398 nM
B5	0.0318 nM
B6	0.0106 nM
B7	0.0231 nM
B8	0.00955 nM
B9	0.0236 nM
B10	0.0172 nM
B11	0.0317 nM
B12	0.0138 nM
B13	0.0243 nM
B14	0.0139 nM
B15	0.0134 nM
B16	0.012 nM
B17	0.0601 nM
B18	0.0229 nM
